US20140171373A1 (REGENTS OF THE UNIVERSITY OF MINNESOTA, published 2014)

Assays:
Assay in all cases: competitive binding assay (PROMEGA-GLO 2)
[1] = target: T1, caspase-2 (UniProt P42575 170-325; P42575 334-452, limits assumed)
T1 construct: also called recombinant caspase-2
T1 sequence (looked up) 1: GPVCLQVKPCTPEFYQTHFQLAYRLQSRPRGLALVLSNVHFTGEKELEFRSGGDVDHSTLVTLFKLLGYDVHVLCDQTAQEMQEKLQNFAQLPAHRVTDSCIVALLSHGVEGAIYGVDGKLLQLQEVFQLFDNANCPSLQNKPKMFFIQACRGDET
T1 sequence (looked up) 2: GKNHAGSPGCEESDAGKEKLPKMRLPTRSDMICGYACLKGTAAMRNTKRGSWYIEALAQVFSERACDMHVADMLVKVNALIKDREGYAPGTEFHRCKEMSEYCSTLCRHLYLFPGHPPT

[2] = target: T2, caspase-3 (UniProt P42574 29-277, limits assumed)
T2 sequence (looked up): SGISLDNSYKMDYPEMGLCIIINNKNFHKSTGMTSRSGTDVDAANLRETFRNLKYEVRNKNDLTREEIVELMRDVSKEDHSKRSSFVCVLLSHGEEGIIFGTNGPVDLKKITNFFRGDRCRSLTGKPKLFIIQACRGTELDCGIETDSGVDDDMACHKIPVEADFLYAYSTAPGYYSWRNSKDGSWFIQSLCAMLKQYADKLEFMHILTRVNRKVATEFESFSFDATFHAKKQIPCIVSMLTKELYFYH

[3] = target: T3, caspase-6 (UniProt P55212 24-179; P55212 194-293, limits assumed)
T3 sequence (looked up) 1: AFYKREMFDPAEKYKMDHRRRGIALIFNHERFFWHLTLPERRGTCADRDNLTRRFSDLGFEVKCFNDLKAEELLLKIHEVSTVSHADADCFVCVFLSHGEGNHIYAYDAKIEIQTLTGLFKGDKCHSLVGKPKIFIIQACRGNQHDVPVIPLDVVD
T3 sequence (looked up) 2: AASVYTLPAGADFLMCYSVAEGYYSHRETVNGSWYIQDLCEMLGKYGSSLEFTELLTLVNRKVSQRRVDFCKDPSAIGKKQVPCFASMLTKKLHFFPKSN

B1: Ac-YKPVD-CHO (SEQ ID NO: 1) (peptide)
peptide: Ac-YKPVD-aldehyde
SMILES: CC(=O)N[C@@H](Cc1ccc(O)cc1)C(=O)N[C@@H](CCCCN)C(=O)N1CCC[C@H]1C(=O)N[C@H](C(=O)N[C@H](C=O)CC(=O)O)C(C)C
notes: Designed to mimic the caspase-2 cleavage site of tau; also called parent pentapeptide; Tyr-Lys-Pro-Val-Asp
With B1 the Ki [1] was 0.2 µM, the Ki [2] was 19.8 µM and the Ki [3] was 184 µM.
